Experimental data published in US20060099684A1.

Target: activated type I collagenase
Test: cell-based or functional assay

- IC50 of inhibition of MMP activity (quantitative radiometric 14C-collagen film assay): 7.5 nM
Substance: T2N (three N-terminal disulfide-bonded loops of human TIMP-2, C-terminal His-tag, expressed in Pichia pastoris) (from UniProt P16035 27-153)
